The target in assay [1] is human melanocortin-5 receptor (human) (UniProt P33032).
In assay [2] the target is human melanocortin-1 receptor (human) (UniProt Q01726).
Assay [3] has as its target human melanocortin-3 receptor (human) (UniProt P41968).

Chain of human melanocortin-5 receptor (human) (P33032 whole entry): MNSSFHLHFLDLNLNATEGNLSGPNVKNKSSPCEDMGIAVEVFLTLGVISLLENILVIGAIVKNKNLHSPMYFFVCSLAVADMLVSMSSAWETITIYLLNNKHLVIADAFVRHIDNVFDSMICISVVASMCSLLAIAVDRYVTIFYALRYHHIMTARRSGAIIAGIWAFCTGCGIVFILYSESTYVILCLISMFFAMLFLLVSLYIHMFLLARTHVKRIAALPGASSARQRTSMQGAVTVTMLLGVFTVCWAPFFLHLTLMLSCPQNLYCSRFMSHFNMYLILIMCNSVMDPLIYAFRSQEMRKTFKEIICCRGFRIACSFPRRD
Chain of human melanocortin-1 receptor (human) (Q01726 whole entry): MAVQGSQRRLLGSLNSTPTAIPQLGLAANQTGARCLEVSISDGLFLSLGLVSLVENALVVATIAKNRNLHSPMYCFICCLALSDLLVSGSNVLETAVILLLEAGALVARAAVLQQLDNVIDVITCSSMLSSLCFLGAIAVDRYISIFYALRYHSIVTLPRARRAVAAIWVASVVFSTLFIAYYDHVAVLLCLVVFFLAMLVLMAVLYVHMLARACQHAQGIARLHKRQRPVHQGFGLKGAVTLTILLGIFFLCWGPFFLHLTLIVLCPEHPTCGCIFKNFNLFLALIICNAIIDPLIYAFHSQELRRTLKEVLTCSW
Chain of human melanocortin-3 receptor (human) (P41968 whole entry): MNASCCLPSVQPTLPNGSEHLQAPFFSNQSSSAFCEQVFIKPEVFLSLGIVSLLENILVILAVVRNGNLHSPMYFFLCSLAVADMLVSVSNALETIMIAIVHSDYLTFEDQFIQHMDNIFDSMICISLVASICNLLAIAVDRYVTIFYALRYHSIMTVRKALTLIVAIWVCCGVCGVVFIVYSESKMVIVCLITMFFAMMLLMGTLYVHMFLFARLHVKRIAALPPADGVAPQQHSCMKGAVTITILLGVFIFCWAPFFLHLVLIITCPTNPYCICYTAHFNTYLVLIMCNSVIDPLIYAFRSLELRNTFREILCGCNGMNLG

Turning to “analogue 11 (Tyr-Val-Nle-Gly-His-D-Nal(2′)-Arg-Trp-Asp-Arg-Phe-Gly-NH2) (peptide)”, the agonist potency (EC50), cAMP split-luciferase sensor dynamic assay in assay [1] is 3.8 nM; in assay [2] it was 0.16 nM; in assay [3], 6.2 nM.
For “analogue 13 (Tyr-Val-Nle-Gly-Pro-D-Nal(2′)-Arg-Trp-Asp-Arg-Phe-Gly-NH2) (peptide)”, the agonist potency (EC50), cAMP split-luciferase sensor dynamic assay in assay [1] is 4.1 nM; in assay [2], 1.2 nM.

The values above are taken from PMC9059122.
